# Measurements as given in US4851572A, “γ-L-glutamyl-4-nitroanilide derivatives and process for determining γ-GTP activity using the same” (Wako Pure Chemical Industries, Ltd., priority 1987, dated 1989).
# System: T1, N[C@@H](CCC(=O)Nc1ccc([N+](=O)[O-])c(CO)c1)C(=O)O
# T1 construct: As samples, there were used human serum; from tissue; host or cells: human serum
# Assay: Km value, γ-GTP from human serum
# Assay type: biochemical
# Conditions: other: human serum γ-GTP
# Excerpt: In Table 3 are shown the results of measuring, by a conventional method, Km values of γ-L-glutamyl-3-hydroxymethyl-4-nitroanilide, which is a compound of this invention, for each of γ-GTPs derived from human serum, porcine kidney and bovine kidney.
# In Table 3 are also shown, for reference, Km values of γ-L-glutamyl-3-carboxy-4-nitroanilide and γ-L-glutamyl-p-nitroanilide reported by Leslie M. Shaw (Clinical Chemistry, 23, 79 (1977)).
# Chain of γ-GTP (human serum) (Homo sapiens) (chain, as listed by the source): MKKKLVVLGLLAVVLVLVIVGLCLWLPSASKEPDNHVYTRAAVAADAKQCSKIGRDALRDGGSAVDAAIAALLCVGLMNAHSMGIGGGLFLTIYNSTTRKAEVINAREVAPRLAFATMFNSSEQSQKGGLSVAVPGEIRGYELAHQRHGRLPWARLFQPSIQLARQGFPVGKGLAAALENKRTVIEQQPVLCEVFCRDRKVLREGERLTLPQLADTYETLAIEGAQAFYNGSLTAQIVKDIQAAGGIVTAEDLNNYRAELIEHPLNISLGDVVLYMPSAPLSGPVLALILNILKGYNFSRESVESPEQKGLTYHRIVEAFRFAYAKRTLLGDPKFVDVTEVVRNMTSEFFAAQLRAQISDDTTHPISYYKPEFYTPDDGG
# Chain of γ-GTP (human serum) (Homo sapiens) (chain, as listed by the source): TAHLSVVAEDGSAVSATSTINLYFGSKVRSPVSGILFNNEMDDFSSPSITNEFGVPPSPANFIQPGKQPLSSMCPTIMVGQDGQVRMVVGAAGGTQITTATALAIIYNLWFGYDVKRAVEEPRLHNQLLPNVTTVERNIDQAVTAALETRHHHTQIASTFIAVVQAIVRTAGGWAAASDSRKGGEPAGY
substance,measurement,value
γ-GTP (human serum) (Homo sapiens),Km,940 µM
